According to article doi:10.1101/091884 (bioRxiv, 2016):
Values belong to the molecule of their own block, whether it stands above or below them.

Columns and labels:
Test in all cases: SEC + other: SDS-PAGE
[1] = target: B. amyloliquefaciens BslA_(42-181) (Bacillus amyloliquefaciens FZB42)
[2] = target: B. licheniformis BslA_(40-17g) (Bacillus licheniformis DSM13)
[3] = target: B. pumilus BslA_(37-177) (Bacillus pumilus SAFR-032)
SEC + other: SDS-PAGE = target: the molecule itself

Molecule: B. pumilus BslA_(37-177) (domain or fragment)
stoichiometry N [3]: 2

B1: B. subtilis BslA_(42-181) (domain or fragment, Bacillus subtilis, UniProt P71014 42-181, looked up)
chain: MRTQSTASLFATITGASKTEWSFSDIELTYRPNTLLSLGVMEFTLPSGFTANTKDTLNGNALRTTQILNNGKTVRVPLALDLLGAGEFKLKLNNKTLPAAGTYTFRAENKSLSIGNKFYAEASIDVAKRSTPPTQPCGCN
stoichiometry N (SEC + other: SDS-PAGE): 2

Other lines, results leading:

stoichiometry N [1]: 2
Molecule: B. amyloliquefaciens BslA_(42-181) (domain or fragment)

stoichiometry N [2]: 2
Molecule: B. licheniformis BslA_(40-17g) (domain or fragment)
